Legend:
[1] = target: biotinylated nanobody S33 (llama (Lama glama)); experiment: ELISA
[2] = target: biotinylated nanobody S7 (llama (Lama glama)); experiment: ELISA

B1: recombinant human soluble epoxide hydrolase (enzyme)
chain: MTLRAAVFDLDGVLALPAVFGVLGRTEEALALPRGLLNDAFQKGGPEGATTRLMKGEITLSQWIPLMEENCRKCSETAKVCLPKNFSIKEIFDKAISARKINRPMLQAALMLRKKGFTTAILTNTWLDDRAERDGLAQLMCELKMHFDFLIESCQVGMVKPEPQIYKFLLDTLKASPSEVVFLDDIGANLKPARDLGMVTILVQDTDTALKELEKVTGIQLLNTPAPLPTSCNPSDMSHGYVTVKPRVRLHFVELGSGPAVCLCHGFPESWYSWRYQIPALAQAGYRVLAMDMKGYGESSAPPEIEEYCMEVLCKEMVTFLDKLGLSQAVFIGHDWGGMLVWYMALFYPERVRAVASLNTPFIPANPNMSPLESIKANPVFDYQLYFQEPGVAEAELEQNLSRTFKSLFRASDESVLSMHKVCEAGGLFVNSPEEPSLSRMVTEEEIQFYVQQFKKSGFRGPLNWYRNMERNWKWACKSLGRKILIPALMVTAEKDFVLVPQMSQHMEDWIPHLKRGHIEDCGHWTQMDKPTEVNQILIKWLDSDARNPPVVSKM
SC50 (sEH at 50% signal saturation; detecting Nb S16) [1]: 4100 ng/mL | SC50 (sEH at 50% signal saturation; detecting Nb S49) [1]: 249 ng/mL | SC50 (sEH at 50% signal saturation; detecting HA-tagged Nb S43) [2]: 3.97 ng/mL
